Results published in publication PMC7889885.

Key:
[1] = target: T1, human NKCC1 (hNKCC1a, SLC12A2), twin-Strep tagged, as prepared for cryo-EM (human), P55011; test: cryo-EM structure; single-particle cryo-EM of the purified transporter in 20 mM HEPES pH 7.4, 150 mM NaCl, 0.1% digitonin, ~10 mg/ml; C2 symmetry imposed; settings: remark: other sources report otherwise
T1 chain: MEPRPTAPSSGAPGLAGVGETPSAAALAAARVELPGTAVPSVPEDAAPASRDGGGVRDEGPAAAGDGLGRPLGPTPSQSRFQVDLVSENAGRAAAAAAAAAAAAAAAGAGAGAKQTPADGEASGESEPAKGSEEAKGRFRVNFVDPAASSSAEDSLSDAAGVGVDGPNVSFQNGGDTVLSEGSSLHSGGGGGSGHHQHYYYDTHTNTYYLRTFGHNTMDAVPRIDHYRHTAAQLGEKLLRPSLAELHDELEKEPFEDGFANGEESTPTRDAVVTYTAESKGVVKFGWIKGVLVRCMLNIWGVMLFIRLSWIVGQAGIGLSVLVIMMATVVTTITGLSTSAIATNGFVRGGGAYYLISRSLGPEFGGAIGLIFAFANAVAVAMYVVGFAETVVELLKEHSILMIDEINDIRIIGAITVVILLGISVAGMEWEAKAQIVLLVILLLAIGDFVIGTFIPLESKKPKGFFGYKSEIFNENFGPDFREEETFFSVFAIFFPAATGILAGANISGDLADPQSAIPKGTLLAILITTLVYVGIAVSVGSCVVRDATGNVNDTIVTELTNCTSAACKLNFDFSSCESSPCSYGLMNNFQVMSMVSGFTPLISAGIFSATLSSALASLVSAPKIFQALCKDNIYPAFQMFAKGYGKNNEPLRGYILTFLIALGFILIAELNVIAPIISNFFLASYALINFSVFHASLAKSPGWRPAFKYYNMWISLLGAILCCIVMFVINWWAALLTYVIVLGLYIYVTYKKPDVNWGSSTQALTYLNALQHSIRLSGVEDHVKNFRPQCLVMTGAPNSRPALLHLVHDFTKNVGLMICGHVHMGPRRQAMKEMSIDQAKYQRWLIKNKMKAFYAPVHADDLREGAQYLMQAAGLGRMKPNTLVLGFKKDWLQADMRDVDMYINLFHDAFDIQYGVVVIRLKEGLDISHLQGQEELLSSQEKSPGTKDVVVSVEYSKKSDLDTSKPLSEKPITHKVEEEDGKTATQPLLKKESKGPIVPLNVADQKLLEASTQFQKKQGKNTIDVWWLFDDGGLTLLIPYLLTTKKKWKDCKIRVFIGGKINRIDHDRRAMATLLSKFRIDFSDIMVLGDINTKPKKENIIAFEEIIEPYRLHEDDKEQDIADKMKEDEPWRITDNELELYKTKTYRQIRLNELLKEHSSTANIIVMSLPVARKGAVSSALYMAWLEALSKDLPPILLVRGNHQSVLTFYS

[2] = target: T2, mouse KCC2 (mKCC2a, SLC12A5), twin-Strep tagged, as prepared for cryo-EM (mouse), Q91V14; test: as above; settings: remark: other sources report otherwise
T2 chain: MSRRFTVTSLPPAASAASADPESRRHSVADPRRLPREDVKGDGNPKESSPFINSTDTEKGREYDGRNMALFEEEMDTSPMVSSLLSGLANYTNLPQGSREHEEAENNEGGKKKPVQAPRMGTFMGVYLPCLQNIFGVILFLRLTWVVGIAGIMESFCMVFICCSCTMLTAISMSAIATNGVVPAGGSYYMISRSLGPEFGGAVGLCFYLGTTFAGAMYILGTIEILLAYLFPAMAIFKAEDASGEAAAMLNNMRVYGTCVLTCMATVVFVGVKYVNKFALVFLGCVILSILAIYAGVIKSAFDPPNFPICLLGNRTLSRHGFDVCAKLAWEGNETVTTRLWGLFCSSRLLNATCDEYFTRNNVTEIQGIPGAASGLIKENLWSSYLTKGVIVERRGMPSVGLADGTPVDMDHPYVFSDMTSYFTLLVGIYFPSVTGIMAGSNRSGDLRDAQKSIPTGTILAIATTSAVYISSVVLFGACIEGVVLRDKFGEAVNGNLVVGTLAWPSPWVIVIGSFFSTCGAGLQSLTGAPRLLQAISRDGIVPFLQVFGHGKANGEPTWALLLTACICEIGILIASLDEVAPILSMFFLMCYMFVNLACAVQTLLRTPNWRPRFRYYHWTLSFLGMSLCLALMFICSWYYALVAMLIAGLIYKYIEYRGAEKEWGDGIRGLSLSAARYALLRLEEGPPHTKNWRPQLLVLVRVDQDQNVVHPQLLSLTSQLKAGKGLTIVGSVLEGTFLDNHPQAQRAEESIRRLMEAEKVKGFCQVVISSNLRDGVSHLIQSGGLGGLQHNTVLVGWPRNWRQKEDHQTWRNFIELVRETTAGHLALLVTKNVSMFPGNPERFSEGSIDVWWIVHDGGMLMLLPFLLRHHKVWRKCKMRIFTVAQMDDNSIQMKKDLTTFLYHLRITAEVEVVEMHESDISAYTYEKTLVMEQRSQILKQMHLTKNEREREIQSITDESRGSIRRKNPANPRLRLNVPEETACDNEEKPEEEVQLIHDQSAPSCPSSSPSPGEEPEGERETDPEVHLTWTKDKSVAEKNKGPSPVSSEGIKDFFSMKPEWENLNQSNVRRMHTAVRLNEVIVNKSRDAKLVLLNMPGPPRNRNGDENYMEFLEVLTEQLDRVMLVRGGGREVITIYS

Row | Binder | stoichiometry N [1] | stoichiometry N [2]
1 | human NKCC1 (hNKCC1a, SLC12A2), twin-Strep tagged, as prepared for cryo-EM, P55011 1-1212 (natural protein) MEPRPTAPSSGAPGLAGVGETPSAAALAAARVELPGTAVPSVPEDAAPASRDGGGVRDEGPAAAGDGLGRPLGPTPSQSRFQVDLVSENAGRAAAAAAAAAAAAAAAGAGAGAKQTPADGEASGESEPAKGSEEAKGRFRVNFVDPAASSSAEDSLSDAAGVGVDGPNVSFQNGGDTVLSEGSSLHSGGGGGSGHHQHYYYDTHTNTYYLRTFGHNTMDAVPRIDHYRHTAAQLGEKLLRPSLAELHDELEKEPFEDGFANGEESTPTRDAVVTYTAESKGVVKFGWIKGVLVRCMLNIWGVMLFIRLSWIVGQAGIGLSVLVIMMATVVTTITGLSTSAIATNGFVRGGGAYYLISRSLGPEFGGAIGLIFAFANAVAVAMYVVGFAETVVELLKEHSILMIDEINDIRIIGAITVVILLGISVAGMEWEAKAQIVLLVILLLAIGDFVIGTFIPLESKKPKGFFGYKSEIFNENFGPDFREEETFFSVFAIFFPAATGILAGANISGDLADPQSAIPKGTLLAILITTLVYVGIAVSVGSCVVRDATGNVNDTIVTELTNCTSAACKLNFDFSSCESSPCSYGLMNNFQVMSMVSGFTPLISAGIFSATLSSALASLVSAPKIFQALCKDNIYPAFQMFAKGYGKNNEPLRGYILTFLIALGFILIAELNVIAPIISNFFLASYALINFSVFHASLAKSPGWRPAFKYYNMWISLLGAILCCIVMFVINWWAALLTYVIVLGLYIYVTYKKPDVNWGSSTQALTYLNALQHSIRLSGVEDHVKNFRPQCLVMTGAPNSRPALLHLVHDFTKNVGLMICGHVHMGPRRQAMKEMSIDQAKYQRWLIKNKMKAFYAPVHADDLREGAQYLMQAAGLGRMKPNTLVLGFKKDWLQADMRDVDMYINLFHDAFDIQYGVVVIRLKEGLDISHLQGQEELLSSQEKSPGTKDVVVSVEYSKKSDLDTSKPLSEKPITHKVEEEDGKTATQPLLKKESKGPIVPLNVADQKLLEASTQFQKKQGKNTIDVWWLFDDGGLTLLIPYLLTTKKKWKDCKIRVFIGGKINRIDHDRRAMATLLSKFRIDFSDIMVLGDINTKPKKENIIAFEEIIEPYRLHEDDKEQDIADKMKEDEPWRITDNELELYKTKTYRQIRLNELLKEHSSTANIIVMSLPVARKGAVSSALYMAWLEALSKDLPPILLVRGNHQSVLTFYS | 2 | –
2 | mouse KCC2 (mKCC2a, SLC12A5), twin-Strep tagged, as prepared for cryo-EM, Q91V14 1-1138 (natural protein, here or on the partner: phosphorylation at T929 and T1029 (confirmed by mass spectrometry); phosphorylation at T929 and T1029 (confirmed by mass spectrometry)) MSRRFTVTSLPPAASAASADPESRRHSVADPRRLPREDVKGDGNPKESSPFINSTDTEKGREYDGRNMALFEEEMDTSPMVSSLLSGLANYTNLPQGSREHEEAENNEGGKKKPVQAPRMGTFMGVYLPCLQNIFGVILFLRLTWVVGIAGIMESFCMVFICCSCTMLTAISMSAIATNGVVPAGGSYYMISRSLGPEFGGAVGLCFYLGTTFAGAMYILGTIEILLAYLFPAMAIFKAEDASGEAAAMLNNMRVYGTCVLTCMATVVFVGVKYVNKFALVFLGCVILSILAIYAGVIKSAFDPPNFPICLLGNRTLSRHGFDVCAKLAWEGNETVTTRLWGLFCSSRLLNATCDEYFTRNNVTEIQGIPGAASGLIKENLWSSYLTKGVIVERRGMPSVGLADGTPVDMDHPYVFSDMTSYFTLLVGIYFPSVTGIMAGSNRSGDLRDAQKSIPTGTILAIATTSAVYISSVVLFGACIEGVVLRDKFGEAVNGNLVVGTLAWPSPWVIVIGSFFSTCGAGLQSLTGAPRLLQAISRDGIVPFLQVFGHGKANGEPTWALLLTACICEIGILIASLDEVAPILSMFFLMCYMFVNLACAVQTLLRTPNWRPRFRYYHWTLSFLGMSLCLALMFICSWYYALVAMLIAGLIYKYIEYRGAEKEWGDGIRGLSLSAARYALLRLEEGPPHTKNWRPQLLVLVRVDQDQNVVHPQLLSLTSQLKAGKGLTIVGSVLEGTFLDNHPQAQRAEESIRRLMEAEKVKGFCQVVISSNLRDGVSHLIQSGGLGGLQHNTVLVGWPRNWRQKEDHQTWRNFIELVRETTAGHLALLVTKNVSMFPGNPERFSEGSIDVWWIVHDGGMLMLLPFLLRHHKVWRKCKMRIFTVAQMDDNSIQMKKDLTTFLYHLRITAEVEVVEMHESDISAYTYEKTLVMEQRSQILKQMHLTKNEREREIQSITDESRGSIRRKNPANPRLRLNVPEETACDNEEKPEEEVQLIHDQSAPSCPSSSPSPGEEPEGERETDPEVHLTWTKDKSVAEKNKGPSPVSSEGIKDFFSMKPEWENLNQSNVRRMHTAVRLNEVIVNKSRDAKLVLLNMPGPPRNRNGDENYMEFLEVLTEQLDRVMLVRGGGREVITIYS | – | 2
